The results in this text go back to patent publication US20230189818A1, “RNA-BASED CONTROL OF BOTRYTIS” (priority 2021, published 2023).

For one data set, the system named is Botrytis cinerea conidia. Kind of data set: In vitro liquid-based assay (fungal biomass, 96-well plates, Cytation 5). In kind it is cell-based. To be noted: co-incubated with conidia for three days, vs untreated control. As for the experimental part: Fungal culture. The Botrytis cinerea was plated each week the culture onto Malt Extract Agar (MEA) from long-term storage on silica stored at 4° C. Three pellets of silica were added to the center of a MEA agar plate and grown at room temperature without parafilm/tape seal for 10-14 days before use; a culture 12 days old was typically used.
Spore and media preparation. A pure culture of B. cinerea was flooded with a 0.01% Triton x-100 solution and conidia scraped free with a sterile hockey stick. The suspension was transferred to two, 1.5 mL centrifuge tubes and centrifuged at 8000 rpm for two minutes. The supernatant was discarded, pelleted spores washed twice with sterile water, then resuspended in sterile water. Conidia were quantified using a hemacytometer and diluted to a final concentration of 5000 conidia/mL stock. A stock solution of 1.25× minimal media was prepared for the assay setup using the components below. Once the stock solution was made, the pH was adjusted to 6.0 using NaOH or KOH, then filter sterilized through a 0.2 um filter tower and vacuum pump and stored at 4° C. The Kao & Michayluk Vitamins (100×) is a filter sterilized stock solution. The stock contains vitamins and amino acids as described by Kao & Michayluk. After filter sterilization, 20 mg of 4-Aminobenzoic acid in 100 ml of solution was added.
Experimental setup. Screening assays were setup in 96-well plates with conidia co-incubated with treatments (controls and dsRNAs) for three days before determining fungal biomass. Each treatment was replicated eight times within a single plate. In each well consisted of 12.5 μl of conidia suspension, 25 μl of the treatment, 12.5 μl of sterile deionized water, and 200 μl of minimal media. Each plate was covered with a breath right film and placed in the percival growth chamber at 23° C. on the shaking platform set to 120 RPM with 24-hour lighting. Plates were incubated for 72 hours before determining fungal growth.
Reading assay plate. Fungal biomass was determined by reading plates with the Cytation 5 machine. The program was set to compile 8 photo slices per well under brightfield microscopy with a 2.5× lens to measure biomass.
Data analysis. Analysis will automatically run on Cytation5 to determine final biomass.
Results are shown in Table 1B representing the average reduction in biomass vs. control for tested sequences across several runs described above.

For data set [1], the system named is Botrytis cinerea isolate (B05.10). Kind of data set: Detached leaf assay (tomato leaflets, lesion size). The note with it: five days post inoculation, vs untreated inoculated control. In kind it is in vivo. The protocol: Plant tissue. Tomato plants, variety Brandywine, were grown in the greenhouse for 3 weeks before harvesting the first true leaves for assays. Nodes 2-4 were prioritized for harvest and only lateral leaflets were used for assays. Leaflets of approximately the same size were used each week and were randomized among treatments. Detached leaflets were immediately brought into the lab for treatment and used within 4 hours of harvest. Detached leaflets were kept at 4° C. until they were treated and placed onto a 1% water agar medium for incubation.
Fungal culture. A Botrytis cinerea isolate (B05.10) was preserved on silica for long-term storage and pulled from these tubes stored at 4° C. for growth on a nutritive medium. Three pellets of silica were added to the center of a Malt Extract Agar (MEA) agar plate and grown at room temperature without parafilm/tape seal for ˜14 days, or until abundant conidia formation, before use.
Treatment of leaflets. Leaflets were treated 24 hours before inoculation and applied using an atomizer to get a fine mist of small droplets entirely covering the leaflet. Silwet L-77 was used as a spreader and added for a 0.03% final concentration (Silwet L-77 brand Phyto Technology Laboratories, S7777 Lot #14D7777001 F). The inoculated control was sprayed with the same volume of sterile DI water with Silwet L-77 in the absence of fungicide or experimental material. Leaflets were spray treated by laying them on a paper towel and holding the atomizer ˜6″ away from the leaflet for applications. Treated leaves were placed on a 1% water agar (10 g Bacto Agar, Difco, in 1 L deionized water, sterilized for 30 minutes at 121° C. and poured when reached a temp of 55° C. into 100×20 mm Petri dishes), with lids of the Petri dishes placed back on before putting Petri dishes under plastic bags to maintain humidity before inoculation the following day. Petri dishes of treated leaflets were left on the lab counter until the following day. Each treatment was replicated ten times with each replicate being a single treated leaflet with two inoculation sites, one on each side of the leaf midvein.
Inoculation. The conidial suspension was prepared by pouring a 7% white grape juice solution onto the culture plate, then scraping the plate with a sterile spatula to dislodge the spores and mycelia. The grape juice solution was prepared by mixing Welch's brand organic white grape juice into sterile deionized water. After dislodging the spores and mycelia of the culture, the suspension was poured through two layers of cheesecloth to remove fungal mycelia and catch the conidial suspension in a clean 50 mL conical tube. Approximately 3 uL of TWEEN 20 was added to conidial suspension to prevent sticking to conical tube. The spore concentration was determined using a Neubauer Improved hemocytometer and inoculum was diluted with more 7% grape juice until a spore concentration of 1×10^5 conidia/mL was reached. Inoculum was used to inoculate host tissue within 2 hours of preparation. Each tomato leaflet was inoculated twice, with inoculation sites placed one per side of the leaflet midvein. A 10 μL volume of spore suspension was placed at each inoculation site using a repeater pipette. Special care was taken not to touch the tip to leaflet surface to avoid contamination between treatments.
Incubation. Petri dishes were placed on lunch trays 6 plates high and moved to an incubator. The incubator was humidity controlled and holds at ˜75% relative humidity. The incubator was kept on 12/12 light/dark days and is set to a temperature of 23° C.
Rating. Measurements were taken at five days post inoculation (DPI). Each lesion that developed was measured using electronic calipers in 2 directions perpendicular to each other to help determine lesion diameter.
Data analysis. Data was analyzed using the SAS JMP statistical program (version 13.2.1) with comparisons made to the untreated, inoculated control. […]

B1: GS2291: dsRNA trigger targeting B. cinerea Bcgpi2 (XM_024693470.1); trigger SEQ ID NO 22, RNA 34, reverse complement 46 (nucleic acid, listed as Botrytis cinerea)
sense: CUGUCAACCAAUUGCGCAUGACAAAUGGAGAUGCUGGACGAUUAAGAAGUAGAGGAAGACAUGCUGAUAGAACGAAGAGUAGCACCAGAAGACGGAAAACUACUUGGAAAAAGCUGCUAUGGGUGAAGCAAUCAUAUCCAGACAAUUACACGGAUCAAGAUACAUUUCUCGAACAUCUGCAGCGAAAUCCACGUCUUCAGCCUUACGACUUUUGGCCAUUGGUAGCAGAUUCCACGGUUAUAGUACAACACGUUUGUUCGGUCAUUAUAUUCAUUGUUUCUUUCGUUGGGAUAUAUGAUAAACAUGUCUCGCCAGUUUCUGUGGUUGGCUGGGGCUCUAUUGCUACCUUUUUGGGGUGGGUGUUAUGGGAUUUAUGGGUGGGACAGGAAGAAAGUACUCGUCCAGCAUUUCCACCACCGCAGCCUUUCUCUCACAGUGUAUCUGCAACAAGUUCAACACCAAACCUAUUGGCAACAGCUGCAAGUGGGCCAAGGCAAUCCUACUCGAUGUCAACAACAUCUCUUCAAUCUACAGCCUCGAAUCUAACCCAACCACCUCCAAUACGACCGGUUUAUACACCACAUAAUU
antisense: AAUUAUGUGGUGUAUAAACCGGUCGUAUUGGAGGUGGUUGGGUUAGAUUCGAGGCUGUAGAUUGAAGAGAUGUUGUUGACAUCGAGUAGGAUUGCCUUGGCCCACUUGCAGCUGUUGCCAAUAGGUUUGGUGUUGAACUUGUUGCAGAUACACUGUGAGAGAAAGGCUGCGGUGGUGGAAAUGCUGGACGAGUACUUUCUUCCUGUCCCACCCAUAAAUCCCAUAACACCCACCCCAAAAAGGUAGCAAUAGAGCCCCAGCCAACCACAGAAACUGGCGAGACAUGUUUAUCAUAUAUCCCAACGAAAGAAACAAUGAAUAUAAUGACCGAACAAACGUGUUGUACUAUAACCGUGGAAUCUGCUACCAAUGGCCAAAAGUCGUAAGGCUGAAGACGUGGAUUUCGCUGCAGAUGUUCGAGAAAUGUAUCUUGAUCCGUGUAAUUGUCUGGAUAUGAUUGCUUCACCCAUAGCAGCUUUUUCCAAGUAGUUUUCCGUCUUCUGGUGCUACUCUUCGUUCUAUCAGCAUGUCUUCCUCUACUUCUUAAUCGUCCAGCAUCUCCAUUUGUCAUGCGCAAUUGGUUGACAG
Consider B1, for which the “Average % Reduction in Biomass” value in the data set with Botrytis cinerea conidia (25 ppm dsRNA) is on record as 5%; in the data set on Botrytis cinerea conidia (150 ppm dsRNA), 24%. Moreover, the “Average % Reduction in Lesion Size” value turned out to be 28.77% in data set [1] (30 ppm) and 46.11% in data set [1] (50 ppm).

B2: GS2589: dsRNA trigger targeting B. cinerea Bcsec15 (XM_024692064.1); trigger SEQ ID NO 49, RNA 53, reverse complement 57 (nucleic acid, listed as Botrytis cinerea)
sense: GGUAUGUUCCGGACAGACCGAAAGAAGAAUACACAUUCCCCGGUGUAUUACCAUUCUCCCAGAUGUACCCAAUGUGCUGUAUAGAUAUCAGAAAUUUCCUGAAUCGAUUCUACUUCAUAAUGGAUGAUCAUUUUCAACAGCCAAACAUUAUUGAUGAGACACUUAAGAAGUCGAUAGAUGAGCUUCUGUCUGAGGAUAUUU
antisense: AAAUAUCCUCAGACAGAAGCUCAUCUAUCGACUUCUUAAGUGUCUCAUCAAUAAUGUUUGGCUGUUGAAAAUGAUCAUCCAUUAUGAAGUAGAAUCGAUUCAGGAAAUUUCUGAUAUCUAUACAGCACAUUGGGUACAUCUGGGAGAAUGGUAAUACACCGGGGAAUGUGUAUUCUUCUUUCGGUCUGUCCGGAACAUACC
Take B2: the “Average % Reduction in Biomass” value in the data set with Botrytis cinerea conidia (25 ppm dsRNA) was 20%; in the data set on Botrytis cinerea conidia (150 ppm dsRNA), 39%.

B3: GS2640: dsRNA trigger targeting B. cinerea Bcsec15 (XM_024692064.1); trigger SEQ ID NO 50, RNA 54, reverse complement 58 (nucleic acid, listed as Botrytis cinerea)
sense: AAAUUCAGCACAGAUUUUCAACAGAUUGUGUCUACCGAUGAAUACAUGCCUAUGCCUGUCAAUAGCGAAGAAGACUUUGAUAAAAUCAUUCAAGUCAGUUGGUAUGUUCCGGACAGACCGAAAGAAGAAUACACAUUCCCCGGUGUAUUACCAUUCUCCCAGAUGUACCCAAUGUGCUGUAUAGAUAUCAGAAAUUUCCUGAAUCGAUUCUACUUCAUAAUGGAUGAUCAUUUUCAACAGCCAAACAUUAUUGAUGAGACACUUAAGAAGUCGAUAGAUGAGCUUCUGUCUGAGGAUAUUU
antisense: AAAUAUCCUCAGACAGAAGCUCAUCUAUCGACUUCUUAAGUGUCUCAUCAAUAAUGUUUGGCUGUUGAAAAUGAUCAUCCAUUAUGAAGUAGAAUCGAUUCAGGAAAUUUCUGAUAUCUAUACAGCACAUUGGGUACAUCUGGGAGAAUGGUAAUACACCGGGGAAUGUGUAUUCUUCUUUCGGUCUGUCCGGAACAUACCAACUGACUUGAAUGAUUUUAUCAAAGUCUUCUUCGCUAUUGACAGGCAUAGGCAUGUAUUCAUCGGUAGACACAAUCUGUUGAAAAUCUGUGCUGAAUUU
On to B3, for which the “Average % Reduction in Biomass” value amounted to 24% in the data set on Botrytis cinerea conidia (25 ppm dsRNA) and 54% with Botrytis cinerea conidia (150 ppm dsRNA). Besides, the “Average % Reduction in Lesion Size” value was determined as 19.63% in data set [1] (30 ppm) and 22.76% in data set [1] (50 ppm).

B4: GS2641: dsRNA trigger targeting B. cinerea Bcsec15 (XM_024692064.1); trigger SEQ ID NO 51, RNA 55, reverse complement 59 (nucleic acid, listed as Botrytis cinerea)
sense: CAAACAAUGGAGGGUUGGGGAUAUUCAGUUGCCAUAUUAGAUGCUUAUGUGCUUAAGCUUUUCUAUAGAUAUGCUGAUUUGUUAAAACGGAAAUUCAGCACAGAUUUUCAACAGAUUGUGUCUACCGAUGAAUACAUGCCUAUGCCUGUCAAUAGCGAAGAAGACUUUGAUAAAAUCAUUCAAGUCAGUUGGUAUGUUCCGGACAGACCGAAAGAAGAAUACACAUUCCCCGGUGUAUUACCAUUCUCCCAGAUGUACCCAAUGUGCUGUAUAGAUAUCAGAAAUUUCCUGAAUCGAUUCUACUUCAUAAUGGAUGAUCAUUUUCAACAGCCAAACAUUAUUGAUGAGACACUUAAGAAGUCGAUAGAUGAGCUUCUGUCUGAGGAUAUUU
antisense: AAAUAUCCUCAGACAGAAGCUCAUCUAUCGACUUCUUAAGUGUCUCAUCAAUAAUGUUUGGCUGUUGAAAAUGAUCAUCCAUUAUGAAGUAGAAUCGAUUCAGGAAAUUUCUGAUAUCUAUACAGCACAUUGGGUACAUCUGGGAGAAUGGUAAUACACCGGGGAAUGUGUAUUCUUCUUUCGGUCUGUCCGGAACAUACCAACUGACUUGAAUGAUUUUAUCAAAGUCUUCUUCGCUAUUGACAGGCAUAGGCAUGUAUUCAUCGGUAGACACAAUCUGUUGAAAAUCUGUGCUGAAUUUCCGUUUUAACAAAUCAGCAUAUCUAUAGAAAAGCUUAAGCACAUAAGCAUCUAAUAUGGCAACUGAAUAUCCCCAACCCUCCAUUGUUUG
Turning to B4, the “Average % Reduction in Biomass” value in the data set on Botrytis cinerea conidia (25 ppm dsRNA) turned out to be 14%; in the data set with Botrytis cinerea conidia (150 ppm dsRNA), 37%. Also, the “Average % Reduction in Lesion Size” value in data set [1] (30 ppm) was 15.75%; in data set [1] (50 ppm), 30.49%.
